Results: US6355785 (Aronex Pharmaceuticals, Inc.)

What was measured:
[1] = molecular target: T1, HIV-1 integrase wild-type (IN1-288) (Human immunodeficiency virus 1, UniProt P12497 P12497:1148-1435); assay: inhibition
[2] = molecular target: T2, HIV-1 reverse transcriptase (Human immunodeficiency virus 1, UniProt P03366;P03366 P03366:600-1159,P03366:600-1039); assay: inhibition; printed as ID50
[3] = molecular target: T2, HIV-1 reverse transcriptase; assay: inhibition
[4] = molecular target: T3, HIV-1 integrase wild-type (IN1-288) (Human immunodeficiency virus 1, UniProt P12497 P12497:1148-1435); assay: inhibition; 3'-process column; strand transfer column 0.060 (headings appear swapped); conditions: intermolecular G4
[5] = molecular target: T1, HIV-1 integrase wild-type (IN1-288); assay: inhibition; 3'-process column; strand transfer column 0.150
[6] = molecular target: T4, HIV-1 integrase IN1-212 (C-terminal deletion) (HIV-1, UniProt P04585 P04585:1148-1359); assay: inhibition; disintegration assay, Mn2+, 30 C; conditions: intramolecular G4
T4 chain: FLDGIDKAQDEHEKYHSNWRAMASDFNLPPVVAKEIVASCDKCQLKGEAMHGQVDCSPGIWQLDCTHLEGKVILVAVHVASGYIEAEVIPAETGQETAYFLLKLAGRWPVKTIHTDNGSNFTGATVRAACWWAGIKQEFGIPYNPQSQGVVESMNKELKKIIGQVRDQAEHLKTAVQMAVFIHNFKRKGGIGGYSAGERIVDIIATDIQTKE

[7] = molecular target: T1, HIV-1 integrase wild-type (IN1-288); assay: inhibition; both activities 0.125
[8] = molecular target: T1, HIV-1 integrase wild-type (IN1-288); assay: inhibition; 3'-process column; strand transfer column 0.055; row misprinted T30745
[9] = molecular target: T1, HIV-1 integrase wild-type (IN1-288); assay: inhibition; both activities 0.120; row misprinted T30745
[10] = molecular target: T3, HIV-1 integrase wild-type (IN1-288); assay: inhibition; both activities 0.120; conditions: intermolecular G4

B1: T30744 (structured_DNA)
DNA: GTGGTGGGCGGGTGGGT
modifications: pPT
IC50 [1]: 60 nM

B2: 1232 random GATC (ssDNA)
DNA: GATCCATGTCAGTGACAC
modifications: PS all linkages, 3'-amine
IC50 [2]: 45 nM | Ki [3]: 560 nM

B3: S935833 (structured_DNA)
DNA: GCGGGGCTCCATGGGGGTCG
modifications: PS pattern g*c*gggc*t*c*c*a*tggggg*t*c*g (as printed in table footnote)
IC50 [4]: 45 nM

B4: I100-12 (ssDNA)
DNA: GTTGGGGGTTGTTGGTGGGGTGGTGG
modifications: PS all linkages, 3'-amine
IC50 [2]: 15 nM | Ki [3]: 5 nM

B5: T30699 (structured_DNA)
DNA: GTGGGTGGTGGGGTGGT
modifications: pPT (PS at first and last linkages)
IC50 [1]: 50 nM

B6: T30576 (structured_DNA)
DNA: GTGGTGGGTGGGTGGGT
modifications: pPT; N5 = 5-iodo dU [n positions 5 = modified dU]
IC50 [1]: 50 nM

B7: T30696 (structured_DNA)
DNA: GTGGGTGGTGGGTGGGT
modifications: pPT (PS at first and last linkages)
IC50 [1]: 13 nM

B8: T30698 (structured_DNA)
DNA: GTGGTGGGTGGGGTGGT
modifications: pPT (PS at first and last linkages)
IC50 [1]: 16 nM

B9: T30701 (structured_DNA)
DNA: GTGGTGGGTGGGTGGGT
modifications: pPT; N13 = C-5 propynyl dU [n positions 13 = modified dU]
IC50 [1]: 30 nM

B10: T30700 (structured_DNA)
DNA: GTGGTGGGTGGGTGGGT
modifications: pPT; capital T = C-5 propynyl dU (position 5)
IC50 [1]: 40 nM

B11: T30746 (structured_DNA)
DNA: GTGGCGGGCGGGCGGGT
modifications: pPT
IC50 [5]: 150 nM

B12: T30177 (AR177) (structured_DNA)
DNA: GTGGTGGGTGGGTGGGT
modifications: PS at the terminal 5' and 3' internucleoside linkages
IC50 [6]: 600 nM

B13: T30748 (structured_DNA)
DNA: TGGGAGGTGGGTCTG
modifications: pPT (PS at first and last linkages)
IC50 [7]: 125 nM

B14: T30743 (structured_DNA)
DNA: GTGGCGGGTGGGTGGGT
modifications: pPT
IC50 [8]: 60 nM

B15: T30673 (structured_DNA)
DNA: GTGGTTGGTGTGGTTGG
modifications: pPT (PS at first and last linkages)
IC50 [1]: 600 nM

B16: T30674 (structured_DNA)
DNA: GTGGTTGGTGTGGTTGGT
modifications: pPT (PS at first and last linkages)
IC50 [1]: 610 nM

B17: T30571 (structured_DNA)
DNA: GTGGTGGGTGGGTGGGT
modifications: pPT; N5,N9,N13 = 5-bromo dU [n positions 5,9,13 = modified dU]
IC50 [1]: 50 nM

B18: T30678 (structured_DNA)
DNA: GTGGTGGGTGGGTTGGT
modifications: pPT (PS at first and last linkages)
IC50 [1]: 120 nM

B19: T30697 (structured_DNA)
DNA: GTGGTGGGGTGGTGGGT
modifications: pPT (PS at first and last linkages)
IC50 [1]: 13 nM

B20: T30578 (structured_DNA)
DNA: GTGGTGGGTGGGTGGGT
modifications: pPT; N13 = 5-iodo dU [n positions 13 = modified dU]
IC50 [1]: 50 nM

B21: I100-21 (ssDNA)
DNA: GTGGTGGGTGGGTGGGTGGTGGGTGGTGGTTGTGGGTGGGTGGTG
modifications: PS all linkages, 3'-amine
IC50 [2]: 4 nM | Ki [3]: 1 nM

B22: I100-07 (ssDNA)
DNA: GTGGTGGGTGGGTGGGTGGTGGGTGGTGGTTGTGGGTGGGTGGTG
modifications: phosphodiester, 3'-amine
IC50 [2]: 2500 nM | Ki [3]: 137 nM

B23: T30754 (structured_DNA)
DNA: GCGGGGCTCCATGGGGGTCG
modifications: pPT (PS at first and last linkages)
IC50 [9]: 120 nM

B24: T30747B (structured_DNA)
DNA: TGGGAGGTGGGTCTG
modifications: all phosphodiester, DMT at 3' end
IC50 [10]: 120 nM

B25: 1174 (ssDNA)
DNA: GGGTGGGTGGGTGGGTGG
modifications: PS all linkages, 3'-amine
IC50 [2]: 15.4 nM | Ki [3]: 15 nM

B26: I100-00 (ssDNA)
DNA: GTTGGGGGTTGTTGGTGGGGTGGTGG
modifications: phosphodiester, 3'-propanolamine
IC50 [2]: 5000 nM | Ki [3]: 370 nM

B27: T30661 (ssRNA)
RNA: GUGGUGGGUGGGUGGGU
modifications: pPT (PS at first and last linkages), RNA sugars
IC50 [1]: 84 nM

B28: T30702 (structured_DNA)
DNA: GTGGTGGGTGGGTGGGT
modifications: pPT; N5,N13 = C-5 propynyl dU [n positions 5,13 = modified dU]
IC50 [1]: 30 nM
